Test results as given in US6500670.

Biological target: T1, human pyruvate dehydrogenase E1alpha/E1beta subunit complex, co-expressed in and purified from E. coli M15, P08559
T1 chain 1: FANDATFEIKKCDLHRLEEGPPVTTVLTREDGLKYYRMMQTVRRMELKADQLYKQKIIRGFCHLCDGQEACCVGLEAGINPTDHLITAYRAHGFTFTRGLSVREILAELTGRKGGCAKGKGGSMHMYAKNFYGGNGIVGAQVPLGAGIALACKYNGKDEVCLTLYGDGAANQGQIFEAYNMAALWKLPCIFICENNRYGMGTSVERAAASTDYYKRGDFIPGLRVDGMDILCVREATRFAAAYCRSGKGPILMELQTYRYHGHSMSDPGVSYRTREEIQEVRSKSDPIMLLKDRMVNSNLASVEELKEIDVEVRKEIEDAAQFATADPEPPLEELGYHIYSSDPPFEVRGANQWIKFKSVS
T1 chain 2: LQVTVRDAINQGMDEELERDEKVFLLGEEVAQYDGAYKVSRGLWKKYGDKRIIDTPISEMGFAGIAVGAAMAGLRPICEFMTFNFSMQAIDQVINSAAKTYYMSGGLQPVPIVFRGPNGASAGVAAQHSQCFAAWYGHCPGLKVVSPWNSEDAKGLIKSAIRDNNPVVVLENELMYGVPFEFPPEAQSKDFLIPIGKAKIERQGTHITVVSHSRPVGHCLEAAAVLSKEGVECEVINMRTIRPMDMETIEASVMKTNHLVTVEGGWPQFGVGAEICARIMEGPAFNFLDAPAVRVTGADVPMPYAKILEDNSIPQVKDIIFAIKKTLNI

B1: Arabidopsis thaliana pyruvate dehydrogenase kinase (PDHK) fusion protein, product of clone YA5 expressed in E. coli from construct pZTa5 (pTrcHisB vector) (protein)
chain: MAVKKACEMFPKSLIEDVHKWGCMKQTGVSLRYMMEFGSKPTERNLLISAQFLHKELPIRVARRAIELQTLPYGLSDKPAVLKVRDWYLESFRDMRAFPEIKDSGDEKDFTQMIKAVKVRHNNVVPMMALGVNQLKKGMNSGNLDEIHQFLDRFYLSRIGIRMLIGQHVELHNPNPPLHTVGYIHTKMSPMEVARNASEDARSICFREYGSAPEINIYGDPSFTFPYVPTHLDLMMYELVKNSLRAVQERFVDSDRVAPPIRIIVADGIEDVTIKVSDEGGGIARSGLPRIFTYLYSTARNPLEEDVDLGIADVPGTMGGYGYGLPISRLYARYFGGDLQIISMEGYGTDAYLHLSRLGDSQEPLP
Question: Which “in vitro phosphorylation (incorporation of 32P from gamma-32P-ATP into the E1 subunit; SDS-PAGE and autoradiography; 2, 5, 10, 15, 20 min)” value does the source give for B1 here?
Answer: time-dependent (incubation times of 2, 5, 10, 15, or 20 min) in vitro phosphorylation of the E1α/E1β complex substrate by the action of the plant PDHK (clone YA5) fusion protein
